Target: human alpha-thrombin (Homo sapiens, UniProt P00734;P00734 328-363;364-622)
Test: native ESI-MS

GGTTGGTGTGGTTGG (structured_DNA) [TBA (Bock thrombin binding aptamer, 15-mer)]
binding result: binds
